Test system: specific peptide sequence that is a substrate for MMP-9 (Lys-Gly-Pro-Arg-Ser-Leu-Ser-Gly-Lys)

## metalloproteinase-9 (MMP-9)
  cleavage of the donor/acceptor-labelled peptide (loss of FRET, colour change): Addition of MMP-9 cleaves the peptide separating donor and acceptor
